Measured values as given in patent US20070243181.

myc-IRAK1c-KD, sequence (chain, as listed by the source): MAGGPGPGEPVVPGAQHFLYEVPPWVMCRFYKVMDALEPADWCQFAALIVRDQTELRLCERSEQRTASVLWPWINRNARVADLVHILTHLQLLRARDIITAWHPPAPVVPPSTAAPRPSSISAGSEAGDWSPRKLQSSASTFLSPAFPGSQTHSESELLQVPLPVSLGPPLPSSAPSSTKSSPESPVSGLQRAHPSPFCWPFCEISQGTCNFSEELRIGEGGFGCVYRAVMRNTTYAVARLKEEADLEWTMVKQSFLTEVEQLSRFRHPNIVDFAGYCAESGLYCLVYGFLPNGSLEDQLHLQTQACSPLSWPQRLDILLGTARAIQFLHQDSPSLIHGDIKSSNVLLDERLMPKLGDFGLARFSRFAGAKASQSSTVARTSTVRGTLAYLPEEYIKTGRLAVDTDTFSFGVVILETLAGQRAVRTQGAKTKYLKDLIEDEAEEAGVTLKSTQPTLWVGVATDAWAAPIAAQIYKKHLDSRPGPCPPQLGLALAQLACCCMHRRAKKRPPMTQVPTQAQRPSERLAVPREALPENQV
myc-IRAK1c, sequence (chain, as listed by the source): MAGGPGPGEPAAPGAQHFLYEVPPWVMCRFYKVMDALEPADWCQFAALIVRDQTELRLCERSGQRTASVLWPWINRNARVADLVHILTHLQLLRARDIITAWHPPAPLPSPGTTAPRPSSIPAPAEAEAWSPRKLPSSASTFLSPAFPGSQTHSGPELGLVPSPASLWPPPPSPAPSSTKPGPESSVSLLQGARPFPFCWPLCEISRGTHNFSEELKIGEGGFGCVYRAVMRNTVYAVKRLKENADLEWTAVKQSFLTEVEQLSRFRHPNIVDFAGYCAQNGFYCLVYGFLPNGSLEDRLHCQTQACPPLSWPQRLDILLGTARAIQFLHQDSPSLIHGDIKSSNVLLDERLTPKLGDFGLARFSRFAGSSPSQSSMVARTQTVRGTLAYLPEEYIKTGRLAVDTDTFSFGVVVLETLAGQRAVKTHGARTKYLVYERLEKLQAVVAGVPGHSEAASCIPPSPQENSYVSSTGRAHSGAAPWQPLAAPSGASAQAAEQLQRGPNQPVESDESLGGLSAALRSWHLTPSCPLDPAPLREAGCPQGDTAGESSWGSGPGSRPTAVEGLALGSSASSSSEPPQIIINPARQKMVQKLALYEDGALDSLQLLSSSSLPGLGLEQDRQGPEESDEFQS

B1: recombinant IRAK4 (protein)
chain: MNKPITPSTYVRCLNVGLIRKLSDFIDPQEGWKKLAVAIKKPSGDDRYNQFHIRRFEALLQTGKSPTSELLFDWGTTNCTVGDLVDLLIQNEFFAPASLLLPDAVPKTANTLPSKEAITVQQKQMPFCDKDRTLMTPVQNLEQSYMPPDSSSPENKSLEVSDTRFHSFSFYELKNVTNNFDERPISVGGNKMGEGGFGVVYKGYVNNTTVAVKKLAAMVDITTEELKQQFDQEIKVMAKCQHENLVELLGFSSDGDDLCLVYVYMPNGSLLDRLSCLDGTPPLSWHMRCKIAQGAANGINFLHENHHIHRDIKSANILLDEAFTAKISDFGLARASEKFAQTVMTSRIVGTTAYMAPEALRGEITPKSDIYSFGVVLLEIITGLPAVDEHREPQLLLDIKEEIEDEEKTIEDYIDKKMNDADSTSVEAMYSVASQCLHEKKNKRPDIKKVQQLLQEMTAS
- in vitro kinase assay on anti-myc immunoprecipitates, autoradiography (myc-IRAK1c-KD): Neither IPAK1c nor IPAK1c-KD showed any phosphorylation in the presence of IRAK4
- in vitro kinase assay on anti-myc immunoprecipitates, autoradiography (myc-IRAK1c): Neither IPAK1c nor IPAK1c-KD showed any phosphorylation in the presence of IRAK4
